Measurements as given in patent US20070219116A1 (TROPHOGEN, published 2007).

Columns and labels:
rat LH receptor = biological target: T1, rat LH receptor (rat, UniProt P16235 27-700, limits assumed); assay: not described; data not shown
T1 construct: the form used in the assay is not described; also called rat luteinizing hormone receptor

human LH receptor = biological target: T2, human LH receptor (human, UniProt P22888 27-699, limits assumed); assay: not described; data not shown
T2 construct: the form used in the assay is not described; also called human luteinizing hormone (receptor)
T2 sequence (P22888 27-699 R124G/N312S limits assumed): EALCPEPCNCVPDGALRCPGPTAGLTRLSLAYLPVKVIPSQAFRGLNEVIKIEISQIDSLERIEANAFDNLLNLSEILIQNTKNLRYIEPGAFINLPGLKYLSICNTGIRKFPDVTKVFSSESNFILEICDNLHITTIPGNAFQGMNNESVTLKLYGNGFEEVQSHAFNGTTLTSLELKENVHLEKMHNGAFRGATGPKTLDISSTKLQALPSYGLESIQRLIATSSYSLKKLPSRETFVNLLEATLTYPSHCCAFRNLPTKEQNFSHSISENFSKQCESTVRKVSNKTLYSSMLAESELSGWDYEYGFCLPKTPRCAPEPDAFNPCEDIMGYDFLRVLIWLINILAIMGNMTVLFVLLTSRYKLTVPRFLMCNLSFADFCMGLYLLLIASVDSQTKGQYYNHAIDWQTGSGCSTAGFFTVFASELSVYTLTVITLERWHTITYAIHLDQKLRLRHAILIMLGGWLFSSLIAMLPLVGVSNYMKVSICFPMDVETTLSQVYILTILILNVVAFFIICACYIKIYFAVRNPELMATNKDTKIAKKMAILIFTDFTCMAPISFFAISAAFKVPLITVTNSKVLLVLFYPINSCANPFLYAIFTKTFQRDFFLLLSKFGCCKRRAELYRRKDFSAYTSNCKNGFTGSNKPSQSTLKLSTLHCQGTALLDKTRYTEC

human FSH receptor = biological target: T3, human FSH receptor (human, UniProt P23945 18-695); assay: cell-based or functional assay
T3 sequence: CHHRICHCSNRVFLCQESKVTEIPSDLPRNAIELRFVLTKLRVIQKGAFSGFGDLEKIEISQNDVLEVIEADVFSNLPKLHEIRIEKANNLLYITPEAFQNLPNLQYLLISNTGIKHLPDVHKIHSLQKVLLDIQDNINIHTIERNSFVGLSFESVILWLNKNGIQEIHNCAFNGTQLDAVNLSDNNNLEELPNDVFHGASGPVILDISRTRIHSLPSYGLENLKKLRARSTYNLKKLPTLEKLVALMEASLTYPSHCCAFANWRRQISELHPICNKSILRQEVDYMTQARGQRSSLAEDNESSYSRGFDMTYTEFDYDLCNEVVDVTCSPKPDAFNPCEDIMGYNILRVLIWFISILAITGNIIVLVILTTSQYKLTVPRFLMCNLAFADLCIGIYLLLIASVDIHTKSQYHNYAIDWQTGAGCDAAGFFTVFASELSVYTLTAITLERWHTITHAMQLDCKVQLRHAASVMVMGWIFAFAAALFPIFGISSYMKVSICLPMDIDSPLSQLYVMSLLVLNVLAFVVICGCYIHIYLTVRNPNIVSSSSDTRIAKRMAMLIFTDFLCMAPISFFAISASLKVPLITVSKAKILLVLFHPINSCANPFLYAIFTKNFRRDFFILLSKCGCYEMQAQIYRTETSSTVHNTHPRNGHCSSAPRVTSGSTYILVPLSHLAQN

T1 sequence (P16235 27-700 limits assumed): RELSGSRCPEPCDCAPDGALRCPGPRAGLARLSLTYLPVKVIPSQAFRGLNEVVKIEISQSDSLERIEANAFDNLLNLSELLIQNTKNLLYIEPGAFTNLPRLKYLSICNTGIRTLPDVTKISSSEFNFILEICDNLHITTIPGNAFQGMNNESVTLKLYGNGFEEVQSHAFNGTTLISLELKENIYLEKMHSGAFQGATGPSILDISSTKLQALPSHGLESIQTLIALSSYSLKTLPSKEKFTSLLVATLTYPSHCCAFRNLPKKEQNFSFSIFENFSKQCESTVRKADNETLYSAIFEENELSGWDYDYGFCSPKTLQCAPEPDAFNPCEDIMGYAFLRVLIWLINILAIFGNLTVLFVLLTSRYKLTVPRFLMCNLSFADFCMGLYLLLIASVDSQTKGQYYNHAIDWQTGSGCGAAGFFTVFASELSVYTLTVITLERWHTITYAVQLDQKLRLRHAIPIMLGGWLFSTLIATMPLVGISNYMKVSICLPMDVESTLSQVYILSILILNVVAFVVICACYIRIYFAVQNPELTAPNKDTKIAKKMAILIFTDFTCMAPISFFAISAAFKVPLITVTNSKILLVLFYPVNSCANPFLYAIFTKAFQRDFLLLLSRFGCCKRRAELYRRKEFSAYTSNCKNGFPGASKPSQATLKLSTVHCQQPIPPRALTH

B1: FSH analog TR-4402: alpha(E14R + Q20R + G73R) + betaE4R (ligand)
chain 1: not shown
chain 2: NSCRLTNITIAIEKEECRFCISINTTWCAGYCYTRDLVYKDPARPKIQKTCTFKELVYETVRVPGCAHHADSLYTYPVATQCHCGKCDSDSTDCTVRGLGPSYCSFGEMKE
binding result (rat LH receptor): binds | binding result (human LH receptor): no binding | potency, total cAMP production in CHO-FSHR cells, compared to Follistim (wild type FSH) (human FSH receptor): 30 fold | potency, total cAMP production in KGN-FSHR cells, compared to wild type FSH (human FSH receptor): 30 fold
